Source: US20110251246A1

Target: His-tagged MUC1 cytoplasmic domain (His-MUC1-CD) (human)
Experiment: SPR (BIAcore), His-MUC1-CD immobilized on the sensor chip, peptide injected at 10 µM, 1:1 binding model

- Kd: 30 nM
Substance: MUC1/CQC peptide
